Results as given in patent US20200087367A1 (ACCELERON PHARMA, published 2020).

Tests used:
Test in all cases: SPR, captured hENG-hFc, soluble BMP9; '-' = Binding undetectable
[1] = target: T1, hENG(26-329)-hFc (human, UniProt P17813 26-329)
T1 construct: HEK 293, purified; not shown: linker and human IgG1 Fc domain
T1 sequence: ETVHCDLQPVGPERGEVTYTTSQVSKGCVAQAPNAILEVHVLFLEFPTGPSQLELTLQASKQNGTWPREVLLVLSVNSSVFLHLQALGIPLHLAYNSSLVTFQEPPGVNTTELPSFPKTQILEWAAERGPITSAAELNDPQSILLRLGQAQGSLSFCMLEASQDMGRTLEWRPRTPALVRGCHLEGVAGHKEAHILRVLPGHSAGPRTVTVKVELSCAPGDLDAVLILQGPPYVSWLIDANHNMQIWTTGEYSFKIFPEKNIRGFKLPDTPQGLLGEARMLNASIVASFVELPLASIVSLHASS
Protocol: (§1) SPR methodology was used to screen these hENG-hFc protein variants for high-affinity binding to human BMP9 and BMP10. In these experiments, captured hENG-hFc proteins were exposed to soluble BMP9 or BMP10 at 100 nM each.

[2] = target: T2, hENG(129-346)-hFc (human, UniProt P17813 129-346)
T2 construct: HEK 293, purified; not shown: linker and human IgG1 Fc domain
T2 sequence: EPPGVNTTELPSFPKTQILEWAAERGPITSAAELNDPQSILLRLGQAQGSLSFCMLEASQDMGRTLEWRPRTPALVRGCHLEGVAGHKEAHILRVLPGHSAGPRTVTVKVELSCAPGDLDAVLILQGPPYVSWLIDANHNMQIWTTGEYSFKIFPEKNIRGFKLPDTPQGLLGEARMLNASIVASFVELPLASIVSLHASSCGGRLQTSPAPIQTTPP
Protocol: as §1

[3] = target: T3, hENG(26-257)-hFc (human, UniProt P17813 26-257)
T3 construct: HEK 293, purified; not shown: linker and human IgG1 Fc domain
T3 sequence: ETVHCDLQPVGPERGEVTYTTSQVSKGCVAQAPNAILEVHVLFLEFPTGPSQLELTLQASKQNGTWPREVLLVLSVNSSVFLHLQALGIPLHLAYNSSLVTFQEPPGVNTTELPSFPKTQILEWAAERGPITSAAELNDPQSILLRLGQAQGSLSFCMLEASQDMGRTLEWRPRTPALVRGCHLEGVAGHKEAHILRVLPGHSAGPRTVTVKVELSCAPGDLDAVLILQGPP
Protocol: as §1

[4] = target: T4, hENG(166-346)-hFc (human, UniProt P17813 166-346)
T4 construct: HEK 293, purified; not shown: linker and human IgG1 Fc domain
T4 sequence: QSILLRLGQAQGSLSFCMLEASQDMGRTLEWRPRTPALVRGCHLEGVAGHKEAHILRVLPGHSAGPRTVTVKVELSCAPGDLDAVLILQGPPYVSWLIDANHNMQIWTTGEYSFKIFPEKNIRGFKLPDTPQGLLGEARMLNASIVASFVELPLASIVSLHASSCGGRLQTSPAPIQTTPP
Protocol: as §1

[5] = target: T5, hENG(360-586)-hFc (human, UniProt P17813 360-586)
T5 construct: HEK 293, purified; not shown: linker and human IgG1 Fc domain
T5 sequence: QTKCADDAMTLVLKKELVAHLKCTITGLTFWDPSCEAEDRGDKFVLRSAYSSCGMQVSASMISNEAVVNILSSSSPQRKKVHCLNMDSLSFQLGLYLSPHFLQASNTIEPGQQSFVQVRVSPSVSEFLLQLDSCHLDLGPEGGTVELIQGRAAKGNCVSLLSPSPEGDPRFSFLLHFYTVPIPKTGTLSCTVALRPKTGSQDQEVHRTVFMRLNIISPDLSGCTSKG
Protocol: as §1

[6] = target: T6, hENG(458-586)-hFc (human, UniProt P17813 458-586)
T6 construct: Expressed in COS cells, not purified; not shown: linker and human IgG1 Fc domain
T6 sequence: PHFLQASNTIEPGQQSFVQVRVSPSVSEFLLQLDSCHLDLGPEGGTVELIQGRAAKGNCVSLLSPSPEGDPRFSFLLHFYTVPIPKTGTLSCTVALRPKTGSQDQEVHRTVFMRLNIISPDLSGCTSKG
Protocol: as §1

[7] = target: T7, hENG(438-586)-hFc (human, UniProt P17813 438-586)
T7 construct: HEK 293, purified; not shown: linker and human IgG1 Fc domain
T7 sequence: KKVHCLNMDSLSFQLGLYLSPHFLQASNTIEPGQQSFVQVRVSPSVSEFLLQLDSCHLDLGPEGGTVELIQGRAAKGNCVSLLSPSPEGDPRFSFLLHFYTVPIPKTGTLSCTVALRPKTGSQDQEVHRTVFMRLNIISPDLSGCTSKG
Protocol: as §1

[8] = target: T8, hENG(458-581)-hFc (human, UniProt P17813 458-581)
T8 construct: Expressed in COS cells, not purified; not shown: linker and human IgG1 Fc domain
T8 sequence: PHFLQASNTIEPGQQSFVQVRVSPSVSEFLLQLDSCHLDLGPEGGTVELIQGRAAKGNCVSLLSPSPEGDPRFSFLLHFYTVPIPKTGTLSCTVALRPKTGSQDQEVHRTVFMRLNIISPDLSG
Protocol: as §1

[9] = target: T9, hENG(26-332)-hFc (human, UniProt P17813 26-332)
T9 construct: HEK 293, purified; not shown: linker and human IgG1 Fc domain
T9 sequence: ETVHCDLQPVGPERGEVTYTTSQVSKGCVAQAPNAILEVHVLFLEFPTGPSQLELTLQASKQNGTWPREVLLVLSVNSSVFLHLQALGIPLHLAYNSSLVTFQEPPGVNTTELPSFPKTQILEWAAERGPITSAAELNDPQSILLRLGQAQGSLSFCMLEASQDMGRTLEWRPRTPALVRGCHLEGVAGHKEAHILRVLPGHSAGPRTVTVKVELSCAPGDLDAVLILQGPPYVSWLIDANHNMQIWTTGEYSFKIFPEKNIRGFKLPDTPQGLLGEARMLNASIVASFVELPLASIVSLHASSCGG
Protocol: as §1

binding result [1]: no binding (tested: 100 nM)
binding result [2]: no binding (tested: 100 nM)
binding result [3]: no binding (tested: 100 nM)
binding result [4]: no binding (tested: 100 nM)
binding result [5]: no binding (tested: 100 nM)
binding result [6]: no binding (tested: 100 nM)
binding result [7]: no binding (tested: 100 nM)
binding result [8]: no binding (tested: 100 nM)
binding result [9]: no binding (tested: 100 nM)
B1: BMP9 (ligand, human, UniProt Q9UK05 320-429, looked up)
chain: SAGAGSHCQKTSLRVNFEDIGWDSWIIAPKEYEAYECKGGCFFPLADDVTPTKHAIVQTLVHLKFPTKVGKACCVPTKLSPISVLYKDDMGVPTLKYHYEGMSVAECGCR
notes: also called hBMP-9; hBMP9
